In patent publication US20140193915, “COMPOSITIONS AND METHODS FOR CUSTOM SITE-SPECIFIC DNA RECOMBINASES” (Monsanto Technology, LLC, published 2014):

T1: pN-TALER IV-1-EE2 (GinL7C7-EE2-TALE13) (synthetic)
T1 chain: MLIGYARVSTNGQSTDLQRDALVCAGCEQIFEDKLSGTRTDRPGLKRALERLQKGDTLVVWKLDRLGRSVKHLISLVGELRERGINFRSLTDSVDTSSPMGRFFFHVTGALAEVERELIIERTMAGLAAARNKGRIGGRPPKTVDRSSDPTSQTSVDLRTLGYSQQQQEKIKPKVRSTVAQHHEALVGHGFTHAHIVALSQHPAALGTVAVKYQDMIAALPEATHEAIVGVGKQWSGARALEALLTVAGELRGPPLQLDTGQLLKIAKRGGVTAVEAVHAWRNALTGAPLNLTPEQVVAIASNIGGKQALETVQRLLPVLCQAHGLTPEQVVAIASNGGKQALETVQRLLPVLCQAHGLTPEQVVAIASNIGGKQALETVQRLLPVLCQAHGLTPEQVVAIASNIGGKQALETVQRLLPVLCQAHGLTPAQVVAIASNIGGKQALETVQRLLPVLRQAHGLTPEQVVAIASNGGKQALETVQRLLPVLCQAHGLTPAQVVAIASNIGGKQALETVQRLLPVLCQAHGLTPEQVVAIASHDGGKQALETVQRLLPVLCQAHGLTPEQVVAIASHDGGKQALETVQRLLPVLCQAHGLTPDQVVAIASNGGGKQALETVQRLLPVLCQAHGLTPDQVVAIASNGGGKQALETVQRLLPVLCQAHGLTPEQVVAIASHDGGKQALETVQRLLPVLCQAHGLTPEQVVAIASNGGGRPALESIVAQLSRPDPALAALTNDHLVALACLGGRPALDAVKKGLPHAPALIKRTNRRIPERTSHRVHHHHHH

T2: sN-TALER IV-3.2 (synthetic)
T2 chain: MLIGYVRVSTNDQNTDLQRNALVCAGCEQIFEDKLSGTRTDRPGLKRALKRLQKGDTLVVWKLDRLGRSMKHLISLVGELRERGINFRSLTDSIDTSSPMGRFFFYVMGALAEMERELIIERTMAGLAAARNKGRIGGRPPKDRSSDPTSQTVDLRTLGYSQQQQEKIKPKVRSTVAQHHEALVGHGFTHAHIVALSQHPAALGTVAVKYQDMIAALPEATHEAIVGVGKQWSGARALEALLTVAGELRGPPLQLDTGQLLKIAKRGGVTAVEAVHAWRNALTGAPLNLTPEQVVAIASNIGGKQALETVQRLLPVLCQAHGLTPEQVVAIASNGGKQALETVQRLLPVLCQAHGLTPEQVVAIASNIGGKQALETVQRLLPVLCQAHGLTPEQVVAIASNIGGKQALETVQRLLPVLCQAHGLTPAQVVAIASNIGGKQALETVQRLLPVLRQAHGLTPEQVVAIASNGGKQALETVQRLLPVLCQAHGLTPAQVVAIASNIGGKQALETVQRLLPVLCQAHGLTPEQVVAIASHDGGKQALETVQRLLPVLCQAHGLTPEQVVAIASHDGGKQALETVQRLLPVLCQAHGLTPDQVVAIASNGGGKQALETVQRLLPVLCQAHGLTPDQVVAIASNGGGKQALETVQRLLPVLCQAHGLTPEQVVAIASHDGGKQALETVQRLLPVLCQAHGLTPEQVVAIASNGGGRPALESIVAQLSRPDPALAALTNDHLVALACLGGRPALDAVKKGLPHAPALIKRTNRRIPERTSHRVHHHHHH

T3: sN-TALER IV-4 (synthetic)
T3 chain: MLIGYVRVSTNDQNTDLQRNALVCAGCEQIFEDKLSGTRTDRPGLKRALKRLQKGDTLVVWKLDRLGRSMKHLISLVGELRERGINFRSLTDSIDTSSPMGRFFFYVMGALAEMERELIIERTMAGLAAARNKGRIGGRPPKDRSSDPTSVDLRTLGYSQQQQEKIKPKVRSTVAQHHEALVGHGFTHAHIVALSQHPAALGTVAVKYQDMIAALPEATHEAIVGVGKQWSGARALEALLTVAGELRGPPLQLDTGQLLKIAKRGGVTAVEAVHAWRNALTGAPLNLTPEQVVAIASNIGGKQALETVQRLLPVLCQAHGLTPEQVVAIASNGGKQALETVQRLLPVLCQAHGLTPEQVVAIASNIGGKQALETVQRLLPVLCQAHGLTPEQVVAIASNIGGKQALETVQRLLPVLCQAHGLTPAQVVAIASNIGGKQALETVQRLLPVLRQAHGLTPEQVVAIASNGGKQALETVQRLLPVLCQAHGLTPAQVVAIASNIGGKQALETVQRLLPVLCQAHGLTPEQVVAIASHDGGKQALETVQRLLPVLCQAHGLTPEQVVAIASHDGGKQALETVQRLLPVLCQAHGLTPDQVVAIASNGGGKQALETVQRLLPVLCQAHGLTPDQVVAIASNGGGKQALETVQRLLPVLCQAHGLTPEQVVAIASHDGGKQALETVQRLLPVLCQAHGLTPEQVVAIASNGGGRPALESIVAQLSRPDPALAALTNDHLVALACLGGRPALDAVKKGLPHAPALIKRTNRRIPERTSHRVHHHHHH


Assays:
Experiment in all cases: cell_activity; E. coli
Details in all cases: tags: 6-His
[1] = target: T1, pN-TALER IV-1-EE2 (GinL7C7-EE2-TALE13)
[2] = target: T2, sN-TALER IV-3.2
Experimental: (§1) To test for recombination, E. coli DH5alpha cells were co-transformed with different combinations of TALER expression construct and TALER reporter construct pairs (Tables 6 and 7). The N-TALER expression and reporter constructs were in an approximate 1:1 mass ratio during the transformation. The co-transformed bacteria were plated on media with chloramphenicol, kanamycin, and X-gal then incubated at 37° C. for 18 to 36 hours. Control samples consisted of transformations using the reporter construct alone. Control transformants were similarly plated. The bacterial transformation protocol was either heat shock or electroporation per standard molecular biology techniques.

[3] = target: T3, sN-TALER IV-4
Experimental: as §1

Row | Binder | activity [1] | activity [2] | activity [3]
1 | Gin18TALE+1 (dsDNA) DNA 1: AGAAGGTATTTATATCCAAAACCATGGTTTACAATATAAATACCTTCT DNA 2: AGAAGGTATTTATATTGTAAACCATGGTTTTGGATATAAATACCTTCT | 1 score |  | 
2 | Gin20TALE+0 (dsDNA) DNA 1: AGAAGGTATTTATATCCAAAACCATGGTTTACAGTATAAATACCTTCT DNA 2: AGAAGGTATTTATACTGTAAACCATGGTTTTGGATATAAATACCTTCT | 1 score | 1 score | 1 score
3 | Gin18TALE+0 (dsDNA) DNA 1: AGAAGGTATTTATACCAAAACCATGGTTTACATATAAATACCTTCT DNA 2: AGAAGGTATTTATATGTAAACCATGGTTTTGGTATAAATACCTTCT | 1 score | 3 score | 4 score
